From paper PMC6661908 come the findings set out here.

This data set concerns FOXA1 P358fs (purified). Put plainly: BLI. The conditions noted are these: buffer, pH and temperature not given.

KLK3 enhancer 60 bp gave a binding signal (fold higher affinity than WT) of 5.
